± gives the standard deviation of the averaged measurements.
Each sequence was assayed on VchCAST RNA-guided transposition machinery (E. coli BL21(DE3) host, lacZ target) (assay: relative integration efficiency (T-LR orientation) vs wild-type transposon end (log2 (normalized fold change)); transposon end mutated: right end (5 bp flank + 75 bp right end); higher = more efficient transposition).
How it was run: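 A T7-driven effector plasmid encoding a CRISPR array, tniQ-cas8-cas7-cas6 and tnsA-tnsB-tnsC was co-transformed into E. coli BL21(DE3) together with a pUC57 mini-transposon donor holding barcoded pools of 1549 left-end or 1849 right-end variants. Transformants were plated with 0.1 mM IPTG at 37°C for 18 h. Illumina sequencing of PCR-amplified input plasmids and genomic integration junctions gave barcode abundances, and relative integration efficiency is their output/input fold change, normalised to reference barcodes and log-transformed.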

Compared with “ACATTTGTTGATACAACCAGCAAATGATAATTACACCCATAAATTGATAATTATCACACCCATAAATTGATATTGCCTCTGATCATAGTCAGACCAACATTGCTACGACCCGTATTCGCACCGACAC”, “ACATTTGTTGATACAACCTAAAAATGATAATTACACCCATAAATTGATAATTATCACACCCATAAATTGATATTGCCTCTGATCATAGTCAGACCAACATTGCTACGACCCGTATTCGCACCGACAC” is higher in “relative integration efficiency (log2)” value: -3.07 ± 0.51 for the first, -0.819 ± 0.32 for the second.

First: ACATTTGTTGATACAACCATAAAATGATAATTAATAATTATTTATAACACCCATAAATTGATAATTATCACACCCATAAATTGATATTGCCTCTGATCATAGTCAGACCAACATTGCTACGACCCGT
Second: ACCGGGGTTGATACAACCATAAAATGATAATTACACCCATAAATTGATAATTATCACACCCATAAATTGATATTGCCTCTGATCATAGTCAGACCAACATTGCTACGACCCGTATTCGCACCGACAC
The “relative integration efficiency (log2)” value of the first is higher: -0.494 ± 0.28 for the first, -5.64 ± 0.3 for the second.

Going from “ACATTTGTTGATACAACCATAAAATGATAATTACACCCATAACGGTATAATTATCACACCCATAAATTGATATTGCCTCTGATCATAGTCAGACCAACATTGCTACGACCCGTATTCGCACCGACAC” to “ACATTTGTTGATACAACCATAAAATGATAATTACACCCATAAATTGATAATTATCCCACCCCATTTAACTATAACGCTCTGATCATAGTCAGACCAACATTGCTACGACCCGTATTCGCACCGACAC”, the “relative integration efficiency (log2)” value rises from -1.21 ± 0.31 to 2.388 ± 0.023.

Compared with “ACATTTGTTGATACAACCATAAAATGATAATTACACCCATAAATTGATAATTATCACACCCATAAATTGATATTGCCTCTGGCGCTCTGTACCCCGCTCGGTCCTCCCGCGCATCGCGCACCGACAC”, “ACATTTGTTGATACAACCATAAAATTCGCATTACACCCATAAATTGATAATTATCACACCCATAAATTGATATTGCCTCTGATCATAGTCAGACCAACATTGCTACGACCCGTATTCGCACCGACAC” is lower in “relative integration efficiency (log2)” value: -0.0593 ± 0.17 for the first, -2.45 ± 0.2 for the second.

Compared with “ACATTTGTTGATACAACCAATTTTTGATAATTACACCCAATTTATGATAATTATCACACCCAATTTATGATATTGCCTCTGATCATAGTCAGACCAACATTGCTACGACCCGTATTCGCACCGACAC”, “ACATTTGTTGATACAACCATAAAATGATAATTAATAATTACACCCATAAATTGATAATTATCAACAAACGCCCGGTCGCGGTACTCTGATCATAGTCAGACCAACATTGCTACGACCCGTATTCGCA” is higher in “relative integration efficiency (log2)” value: -1.18 ± 0.21 for the first, 1.37 ± 0.24 for the second.

First: ACATTTGTTGATACAACCATCAAATGGTAATTCCACCCCTACATTGATAATTATCACACCCAATTTAACTATAACGCTCTGATCATAGTCAGACCAACATTGCTACGACCCGTATTCGCACCGACAC
Second: ACATTTGTTGATACAACCATAAAATGATAATTACACCCATAAATTGATAATTATCACACCCATAAATTGATATTGCCTCTGTTTATGGCTAGCTCAGTCCTAGGTACAATGCTAGCCGCACCGACAC
The “relative integration efficiency (log2)” value of the first is lower: -3.06 ± 0.11 for the first, -0.0571 ± 0.23 for the second.

First: ACATTTGTTGATACACCCATAAATTGATAATTACAACCATAAGTTGATATTTTTCACAACCATAAAGTGATATTTACTCTGATCATAGTCAGACCAACATTGCTACGACCCGTATTCGCACCGACAC
Second: ACATTTGTTGATACAACGATAAAATGATAATTACACCGATAAATTGATAATTATCACACCGATAAATTGATATTGCCTCTGATCATAGTCAGACCAACATTGCTACGACCCGTATTCGCACCGACAC
The “relative integration efficiency (log2)” value of the first is lower: -0.228 ± 0.18 for the first, 0.086 ± 0.12 for the second.

Compared with “ACATTTGTTGATACACCCATAAATTGATAATTACACCCATAAATTGATATTGCTCAGTGGGTATTTAACTATAACGCTCTGATCATAGTCAGACCAACATTGCTACGACCCGTATTCGCACCGACAC”, “ACATTTGTAGATAAAACCATACGTTGATTTTACGAAACCATACGCTGAAATAATCACACCCATAAATTGATATTGCCTCTGATCATAGTCAGACCAACATTGCTACGACCCGTATTCGCACCGACAC” is lower in “relative integration efficiency (log2)” value: 2.63 ± 0.18 for the first, -5.26 ± 0.89 for the second.

First: ACTAAAGTTGATACAACCATAAAATGATAATTACACCCATAAATTGATAATTATCACACCCATAAATTGATATTGCCTCTGATCATAGTCAGACCAACATTGCTACGACCCGTATTCGCACCGACAC
Second: ACATTTGTTGATACAACCATAAAATGATAATTACACCCATAAATTGATAATTATCACACCCATAAATTGATATTGCCTCTGATCATAGTCAGACCAACCATAAAATGATAATTACAAGCACCGACAC
The “relative integration efficiency (log2)” value of the first is lower: -4.99 ± 1.1 for the first, -0.0296 ± 0.24 for the second.

Going from “ACATTTGTTCATACAACCATAAAATGATAATTACCACCCCTACATTGATAATTATCACACCCATTTAACTATAACGCTCTGATCATAGTCAGACCAACATTGCTACGACCCGTATTCGCACCGACAC” to “ACATTTGTTGATACAACCATAAAATGATAATTACCCCCATAAATTGATAATTATCACACCCCATTTAACTATAACGCTCTGATCATAGTCAGACCAACATTGCTACGACCCGTATTCGCACCGACAC”, the “relative integration efficiency (log2)” value rises from -3.25 ± 0.45 to 2.089 ± 0.0067.

Compared with “ACATTTGTTCATACAACCCTAAAATGATAATTACACCCATAAATGGATAATTATCACACCCAATTTAACTATAACGCTCTGATCATAGTCAGACCAACATTGCTACGACCCGTATTCGCACCGACAC”, “ACATTTGTTGATACAACCCTAAAATGATAATTACACCCATAAATTCATCATTATCACCCCCAATTTAACTATAACGCTCTGATCATAGTCAGACCAACATTGCTACGACCCGTATTCGCACCGACAC” is higher in “relative integration efficiency (log2)” value: -2.78 ± 0.54 for the first, -1.49 ± 0.085 for the second.

Compared with “ACATTTGTTGATACAACCATAAAATGATAATTACACCCATAAATTGATAATTATCACACCCATAAATTGATATTGCCTCTGATCAAAATGTGAGCGAGTAACAACCTAGTCAGACCAGCACCGACAC”, “ACATTTGTTGATACAACCATATATTGATATCTCCACCCATAAATTGATAATTATCAGTGGGTATTTAACTATAACGCTCTGATCATAGTCAGACCAACATTGCTACGACCCGTATTCGCACCGACAC” is higher in “relative integration efficiency (log2)” value: -0.0747 ± 0.17 for the first, 2.29 ± 0.021 for the second.

Going from “ACATTTGTTGATACACCCATAAATTGATATTGCCAACCATAAGTTGATATTTTTCACACCCATAAATTGATAATTACTCTGATCATAGTCAGACCAACATTGCTACGACCCGTATTCGCACCGACAC” to “ACATTTGTTGATACCACCATCAAATGGTAATTCCACCCCTACATTGATAATTATCACACCCAATTTAACTATAACGCTCTGATCATAGTCAGACCAACATTGCTACGACCCGTATTCGCACCGACAC”, the “relative integration efficiency (log2)” value falls from 0.0375 ± 0.27 to -3.726 ± 0.034.

Going from “ACATTTGCTGATACTACCATATAATGATAATAACACCCATAAAATGATAATTATCACACCCAATTTAACTATAACGCTCTGATCATAGTCAGACCAACATTGCTACGACCCGTATTCGCACCGACAC” to “ACATTTGTTGATACAACCATATAATGATAATTACACCCATATATTGATAATTATCACACCCATATATTGATATTGCCTCTGATCATAGTCAGACCAACATTGCTACGACCCGTATTCGCACCGACAC”, the “relative integration efficiency (log2)” value rises from -0.422 ± 0.19 to 0.24 ± 0.36.

“ACATTTGTTGATACAACCATAAAATTCGCCGGCACAAACGCCCGGTCGCCGGCGACACAAACGCCCGGTCGCGGTAAGAGGATCATAGTCAGACCAACATTGCTACGACCCGTATTCGCACCGACAC” and “ACATTTGTTGATACACCCATAAATTGATAATTACACCCATAAATTGATAATTATCACAACCATAAGTTGATATTTTCTCTGATCATAGTCAGACCAACATTGCTACGACCCGTATTCGCACCGACAC” are within error of each other in “relative integration efficiency (log2)” value: -0.949 ± 0.46 for the first, -0.206 ± 0.42 for the second.

Compared with “ACATTTGTTGATACACCCATAAATTGATATTGCCAACCATAAGTTGATATTTTTCACAACCATAAAATGATAATTACTCTGATCATAGTCAGACCAACATTGCTACGACCCGTATTCGCACCGACAC”, “ACATTTGTTGATACAACCATCAAATGATAATTCCACCCCTAAATTGATAATTATCACACCCAATTTAACTATAACGCTCTGATCATAGTCAGACCAACATTGCTACGACCCGTATTCGCACCGACAC” is lower in “relative integration efficiency (log2)” value: -0.0638 ± 0.3 for the first, -1.01 ± 0.31 for the second.
